Laboratory results from patent US20210292423A1 (published 2021).

Molecular target: T1, human CD3ε/δ-Fc fusion protein (soluble recombinant CD3ε/δ complex) (human, UniProt P04234 22-105)
T1 construct: also called huCD3ε/δ; huCD3; not shown: hinge, CH2, CH3 of human IgG with tag
Assay: SPR Biacore, Fab
Procedure: (§1) Binding affinities of anti-CD3 binding Fabs or CODV-Fabs were measured by surface plasmon resonance (SPR) using a Biacore3000 instrument (GE Healthcare). Assay buffer was HBS-EP (BR-1001-88, GE Healthcare). Capture of CD3ε/δ-Fc fusion proteins was achieved using the human antibody capture kit (GE Healthcare). […] The CD3εδ-Fc fusions proteins were captured at 10 μl/min to approx. 70 RU to yield Rmax values of 30 RU. Binding kinetics with the anti-CD3 Fabs or CODV-Fabs was measured at 30 μl/min for 240 sec. and 600 sec. for association and dissociation phase, respectively. Twofold dilutions of Fabs from 3 to 400 nM in assay buffer were used. All Fab concentrations were run in duplicate together with duplicate buffer blanks for double referencing. Regeneration of the capture surface was performed with a 1 min injection of 3M MgCl2 solution at 30 μl/min. For data analysis the BIAevaluation software v.4.1 (GE Healthcare) was used. Data were fit globally using a 1:1 Langmuir model with mass transfer.

T1 sequence (chain, as listed by the source mutant, chain 1 of 2): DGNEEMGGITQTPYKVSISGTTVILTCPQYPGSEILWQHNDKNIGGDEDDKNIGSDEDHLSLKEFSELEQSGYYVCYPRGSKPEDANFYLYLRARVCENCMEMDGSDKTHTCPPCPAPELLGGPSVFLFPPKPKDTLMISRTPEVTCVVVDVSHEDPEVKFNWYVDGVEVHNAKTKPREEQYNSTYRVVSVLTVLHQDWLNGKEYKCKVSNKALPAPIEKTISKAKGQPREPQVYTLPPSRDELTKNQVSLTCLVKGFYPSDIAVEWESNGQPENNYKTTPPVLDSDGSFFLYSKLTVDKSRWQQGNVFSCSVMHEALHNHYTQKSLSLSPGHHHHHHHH
T1 sequence (P04234 22-105, stated change not applied, chain 2 of 2): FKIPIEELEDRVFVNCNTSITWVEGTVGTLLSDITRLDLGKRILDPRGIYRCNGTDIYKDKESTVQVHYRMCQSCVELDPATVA

| Kd [nM] | koff [s⁻¹] | kon [M⁻¹ s⁻¹] | Binder |
| --- | --- | --- | --- |
| 33.5 | 0.00171 | 50900 | humanized 4B4 Fab 4B4_20 (VL2F, VH6C) (Fab, V domains shown, expressed as Fab-fragment) VH: QVQLVESGGGVVQPGRSLRLSCAASGFTFSNAWMHWVRQAPGKQLEWVAQIKARSNNYATYYADSVKGRFTISRDDSKSTLYLQMNSLRAEDTAVYYCRGTYYASKPFDYWGQGTLVTVSS VL: DIVMTQTPLSLSVTPGQPASISCKSSQSLVHDNANTYLSWYLQKPGQSPQSLIYKVSNRFSGVPDRFSGSGSGTDFTLKISRVEAEDVGVYYCGQGTQYPFTFGSGTKVEIK |
| 18.2 | 0.00423 | 233000 | humanized 4B4 Fab 4B4_5 (VL2C, VH6D) (Fab, V domains shown, expressed as Fab-fragment) VH: QVQLVESGGGVVQPGRSLRLSCATSGFTFSNAWMHWVRQAPGKQLEWVAQIKARSNNYATYYADSVKGRFTISRDDSKSTIYLQMNSLRAEDTAVYYCRGTYYASKPFDYWGQGTLVTVSS VL: DIVMTQTPLSLSVTPGQPASISCKSSQSLVHDNGNTYLSWSLQKPGQSPQVLIYKVSNRFSGVPDRFSGSGSGTDFTLKISRVEAEDVGVYYCGQGTQYPFTFGSGTKLEIK |
| 8.91 | 0.00276 | 310000 | humanized 4B4 Fab 4B4_17 (VL2A, VH2B) (Fab, V domains shown, expressed as Fab-fragment) VH: EVQLVETGGGLVQPGGSLKLTCATSGFTFSNAWMHWVRQSPEKGLEWVAQIKARSNNYATYYADSVKGRFTISRDDSKSTIYLQMNSLRAEDTAIYYCRGTYYASKPFDYWGQGVMVTVSS VL: DVVMTQTPVSLSVSPGGPVSISCRSSQSLVHDNGNTYLSWSLQKPGQSPQVLIYKVSNRFSGVSDRFTGSGSGTDFTLKISRVEPDDLGVYYCGQGTQYPFTFGSGTKLEIK |
| 13.4 | 0.00291 | 218000 | humanized 4B4 Fab 4B4_9 (VL2B, VH2A) (Fab, V domains shown, expressed as Fab-fragment) VH: EVQLVETGGGLVQPGGSLKLTCATSGFTFSNAWMHWVRQSPEKGLEWVAQIKARSNNYATYYAESVKGRFTISRDDSKSTIYLQMNSLRAEDTAIYYCRGTYYASKPFDYWGQGVMVTVSS VL: DVVMTQTPVSLSVSPGGPVSISCRSSQSLVHDNANTYLSWSLQKPGQSPQVLIYKVSNRFSGVSDRFTGSGSGTDFTLKISRVEPDDLGVYYCGQGTQYPFTFGSGTKLEIK |
| 8.1 | 0.00248 | 306000 | humanized 4B4 Fab 4B4_7 (VL1b, VH1A) (Fab, V domains shown, expressed as Fab-fragment) VH: QVQLVETGGGLVKPGQSLKLTCATSGFTFSNAWMHWVRQSPEKGLEWVAQIKARSNNYATYYAESVKGRFTISRDDSKSTIYLQMNSLTPEDTAIYYCRGTYYASKPFDYWGQGVMVTVSS VL: DVVMTQTPVSLSVSVGGRVSISCRSSQSLVHDNANTYLSWSLQKPGKSPKVLIYKVSNRFSGVSSRFTGSGSGTDFTLKISSVQPDDLGVYYCGQGTQYPFTFGSGTKLEIK |
| 7.48 | 0.00214 | 286000 | humanized 4B4 Fab 4B4_2 (VL1b, VH1B) (Fab, V domains shown, expressed as Fab-fragment) VH: QVQLVETGGGLVKPGQSLKLTCATSGFTFSNAWMHWVRQSPEKGLEWVAQIKARSNNYATYYAVSVKGRFTISRDDSKSTIYLQMNSLTPEDTAIYYCRGTYYASKPFDYWGQGVMVTVSS VL: DVVMTQTPVSLSVSVGGRVSISCRSSQSLVHDNANTYLSWSLQKPGKSPKVLIYKVSNRFSGVSSRFTGSGSGTDFTLKISSVQPDDLGVYYCGQGTQYPFTFGSGTKLEIK |

The next lines start with the binder.

| Binder | Kd [nM] | koff [s⁻¹] | kon [M⁻¹ s⁻¹] |
| --- | --- | --- | --- |
| humanized 4B4 Fab 4B4_10 (VL1_CM2, VH6_BM2) (Fab, V domains shown) VH: QVQLVESGGRVVQPGRSLRLTCAASGFTFSNAWMHWVRQAPGKQLEWVAQIKARSNNYATYYAESVKGRFTISRDDSKSTIYLQMNSLRAEDTAVYYCRGTYYASKPFDYWGQGTTVTVSS VL: DVVMTQSPLSLSVTLGQPVSISCRSSQSLVHDNGNTYLSWSLQRPGQSPRVLIYKVSNRFSGVPDRFSGSGSGTDFTLKISRVEAEDVGVYYCGQGTQYPFTFGSGTKLEIK | 9.19 | 0.00399 | 434000 |
| humanized 4B4 Fab 4B4_6 (VL1a, VH1A) (Fab, V domains shown, expressed as Fab-fragment) VH: QVQLVETGGGLVKPGQSLKLTCATSGFTFSNAWMHWVRQSPEKGLEWVAQIKARSNNYATYYAESVKGRFTISRDDSKSTIYLQMNSLTPEDTAIYYCRGTYYASKPFDYWGQGVMVTVSS VL: DVVMTQTPVSLSVSVGGRVSISCRSSQSLVHDNGNTYLSWSLQKPGKSPKVLIYKVSNRFSGVSSRFTGSGSGTDFTLKISSVQPDDLGVYYCGQGTQYPFTFGSGTKLEIK | 1.24 | 0.00185 | 1.5e+06 |
| humanized 4B4 Fab 4B4_1 (VL1a, VH1B) (Fab, V domains shown, expressed as Fab-fragment) VH: QVQLVETGGGLVKPGQSLKLTCATSGFTFSNAWMHWVRQSPEKGLEWVAQIKARSNNYATYYAVSVKGRFTISRDDSKSTIYLQMNSLTPEDTAIYYCRGTYYASKPFDYWGQGVMVTVSS VL: DVVMTQTPVSLSVSVGGRVSISCRSSQSLVHDNGNTYLSWSLQKPGKSPKVLIYKVSNRFSGVSSRFTGSGSGTDFTLKISSVQPDDLGVYYCGQGTQYPFTFGSGTKLEIK | 2.77 | 0.00174 | 628000 |

Molecular target: T1, human CD3ε/δ-Fc fusion protein (soluble …)
Assay: SPR Biacore, CODV-Fab on recombinant CD3ε/δ
Procedure: as §1

| Kd [nM] | koff [s⁻¹] | kon [M⁻¹ s⁻¹] | Binder |
| --- | --- | --- | --- |
| 58.7 | 0.00109 | 18600 | CODV-Fab 7G3 × 20G6 with humanized 20G6 VL1D_VH1B (bispecific antibody) light: DIVMTQTPLSLSVTPGQPASISCKSSQSLVHNNGNTYLSWYLQKPGQSPQSLIYKVSNRFSGVPDRFSGSGSGTDFTLKISRVEAEDVGVYYCGQGTQYPFTFGSGTKVEIKGQPKAAPDFVMTQSPSSLTVTAGEKVTMSCKSSQSLLNSGNQKNYLTWYLQKPGQPPKLLIYWASTRESGVPDRFTGSGSGTDFTLTISSVQAEDLAVYYCQNDYSYPYTFGGGTKLEIKTKGPSRTVAAPSVFIFPPSDEQLKSGTASVVCLLNNFYPREAKVQWKVDNALQSGNSQESVTEQDSKDSTYSLSSTLTLSKADYEKHKVYACEVTHQGLSSPVTKSFNRGEC heavy: EVQLQQSGPELVKPGASVKMSCKASGYTFTDYYMKWVKQSHGKSLEWIGDIIPSNGATFYNQKFKGKATLTVDRSSSTAYMHLNSLTSEDSAVYYCTRSHLLRASWFAYWGQGTLVTVSASQVQLVESGGGVVQPGRSLRLSCAASGFTFTKAWMHWVRQAPGKQLEWVAQIKDKSNSYATYYADSVKGRFTISRDNSKNTLYLQMNSLRAEDTAVYYCRGVYYALSPFDYWGQGTLVTVSSRTASTKGPSVFPLAPSSKSTSGGTAALGCLVKDYFPEPVTVSWNSGALTSGVHTFPAVLQSSGLYSLSSVVTVPSSSLGTQTYICNVNHKPSNTKVDKKVEPKSCDKTHTHHHHHH |
| 152 | 0.00434 | 28600 | CODV-Fab 7G3 × 20G6 with humanized 20G6 VL1A_VH1A (bispecific antibody) light: DIVMTQTPLSLSVTPGQPASISCKSSQSLVHNNGNTYLSWYLQKPGQSPQLLIYKVSNRFSGVPDRFSGSGSGTDFTLKISRVEAEDVGVYYCGQGTQYPFTFGQGTKLEIKGQPKAAPDFVMTQSPSSLTVTAGEKVTMSCKSSQSLLNSGNQKNYLTWYLQKPGQPPKLLIYWASTRESGVPDRFTGSGSGTDFTLTISSVQAEDLAVYYCQNDYSYPYTFGGGTKLEIKTKGPSRTVAAPSVFIFPPSDEQLKSGTASVVCLLNNFYPREAKVQWKVDNALQSGNSQESVTEQDSKDSTYSLSSTLTLSKADYEKHKVYACEVTHQGLSSPVTKSFNRGEC heavy: EVQLQQSGPELVKPGASVKMSCKASGYTFTDYYMKWVKQSHGKSLEWIGDIIPSNGATFYNQKFKGKATLTVDRSSSTAYMHLNSLTSEDSAVYYCTRSHLLRASWFAYWGQGTLVTVSASQVQLVESGGGVVQPGRSLRLSCAASGFTFTKAWMHWVRQAPGKGLEWVAQIKDKSNSYATYYADSVKGRFTISRDNSKNTLYLQMNSLRAEDTAVYYCRGVYYALSPFDYWGQGTLVTVSSRTASTKGPSVFPLAPSSKSTSGGTAALGCLVKDYFPEPVTVSWNSGALTSGVHTFPAVLQSSGLYSLSSVVTVPSSSLGTQTYICNVNHKPSNTKVDKKVEPKSCDKTHTHHHHHH |
